Laboratory results from the RNAGym collection of RNA variant scans (doi:10.1021/acssynbio.7b00057).

B1: Pistol ribozyme (parent)
chain: GGGUCGUUGUUCCAUAAUCGCGUGGAUAUGGCACGCAAGUUUCUACCGGGCACCGUAAAUGUCCGACUGGAGCCGUUCGGGCGGCUAUAAACAGACCUCAGGCCCGAAGCGUGGCGGCACCUGCCGCCGGUGGUAAAAAAGAUCGGAAGAGCACACGUCU

Variants of: B1
Experiment: aptazyme ON/OFF ratio, guanine; higher = stronger switching; co-transcriptional cleavage with and without guanine

Variant	aptazyme ON/OFF ratio
U7C G9A U10C U11G C12A	1.28
U7C G9A U10C U11G C12U	1.45
U7C G9A U10C U11G C12G	1.28
U7C G9A U10G C12U	1.33
U7C G9A U10G C12A	1.15
U7C G9A U10G C12G	1.28
U7C G9A U10A U11A C12A C13U	1.29
U7C G9A U10A U11A C12A C13G	1.23
U7C G9A U10A U11A C12A C13A	1.2
U7A U10C U11C C12G C13A	1.04
U7A U10C U11C C12G C13U	1.06
U7A U10C U11C C12G C13G	1.09
U7A U10G U11A C13U	1.06
U7A U10G U11A C13A	1.11
U7A U10G U11A C13G	1.09
U7A U10C U11G C13G	1.2
U7A U10C U11G C13U	1.17
U7A U10C U11G C13A	1.24
U7A U11G C12U C13A	1.15
U7A U11G C12U C13U	1.13
U7A U11G C12U C13G	1.06
U7C G9A U10G C13A	1.19
U7C G9A U10G C13G	1.02
U7C G9A U10G C13U	1.34

Variant	aptazyme ON/OFF ratio
U7C G9A C12U C13A	1.22
U7C G9A C12U C13U	1.22
U7C G9A C12U C13G	1.18
U7C G9A	1.17
U7A U10G C12A	1.16
U7A U10G C12G	1.36
U7A U10G C12U	1.29
U7C G9A U10C U11A C12A C13G	1.22
U7C G9A U10C U11A C12A C13U	1.16
U7C G9A U10C U11A C12A C13A	1.12
U7A U10G U11G C13G	1.16
U7A U10G U11G C13A	1.12
U7A U10G U11G C13U	1.27
U7C G9A U10A U11C C12U	1.07
U7C G9A U10A U11C C12G	1.35
U7C G9A U10A U11C C12A	1.13
U7C G9A U10C U11C C12G C13A	1.09
U7C G9A U10C U11C C12G C13U	1.04
U7C G9A U10C U11C C12G C13G	1.12
U7C G9A U10C C12A C13G	1.17
U7C G9A U10C C12A C13U	1.31
U7C G9A U10C C12A C13A	1.38
U7C C12A	1.61
U7C C12G	1.85

Variant	aptazyme ON/OFF ratio
U7C C12U	1.73
U7A U10C U11A C12U	1.3
U7A U11A C12U C13U	1.31
U7A U11A C12U C13A	1.26
U7A U11A C12U C13G	1.36
U7C G9A U10A U11C C12A C13G	1.1
U7C G9A U10A U11C C12A C13U	1.24
U7C G9A U10A U11C C12A C13A	1.1
U7C G9A U10C C12U C13A	1.2
U7C G9A U10C C12U C13U	1.14
U7C G9A U10C C12U C13G	1.16
U7C G9A U10C C12A	1.27
U7C G9A U10C C12U	1.2
U7C G9A U10C C12G	1.2
U7C C12U C13U	1.05
U7C C12U C13G	1.28
U7C C12U C13A	1.55
U7A U11A C12A C13G	1.26
U7A U11A C12A C13A	1.3
U7A U11A C12A C13U	1.41
U7C G9A U10C U11G C12U C13G	1.34
U7C G9A U10C U11G C12U C13A	1.31
U7C G9A U10C U11G C12U C13U	1.32
U7A U11G C12A C13A	1.15

Variant	aptazyme ON/OFF ratio
U7A U11G C12A C13G	1.25
U7A U11G C12A C13U	1.25
U7A U10G U11G C12A	1.29
U7A U10G U11G C12U	1.28
U7A U10G U11G C12G	1.45
U7C G9A U10A U11G C12U C13U	1.27
U7C G9A U10A U11G C12U C13A	1.16
U7C G9A U10A U11G C12U C13G	1.13
U7A U10G U11A C12A C13G	1.11
U7A U10G U11A C12A C13A	1.17
U7A U10G U11A C12A C13U	1.08
U7A U10G U11C C12A C13U	1.2
U7A U10G U11C C12A C13A	1.33
U7A U10G U11C C12A C13G	1.12
U7C	1.31
U7A U11A C13G	1.16
U7A U11A C13A	1.13
U7A U11A C13U	1.13
U7A U10C U11G C12U C13G	1.31
U7A U10C U11G C12U C13U	1.2
U7A U10C U11G C12U C13A	1.27
U7A U11A C12G	1.2
U7A U11A C12A	1.41
U7A U11A C12U	1.26

Variant	aptazyme ON/OFF ratio
U7A U11G	1.17
U7A U11A	1.24
U7A U11C	1.29
U7A U10G C12G C13U	1.2
U7A U10G C12G C13A	1.08
U7A U10G C12G C13G	1.08
U7A U11A C12G C13U	1.24
U7A U11A C12G C13A	1.08
U7A U11A C12G C13G	1.14
U7A U10C U11C C12A	1.1
U7A U10C U11C C12U	1.04
U7A U10C U11C C12G	1.14
U7C G9A U10C	4.55
U7C G9A U10G	1.42
U7C G9A U10A	1.88
U7A U10C U11G	1.25
U7A U10C U11C	1.03
U7A U10C U11A C13U	1.16
U7A U10C U11A C13G	1.09
U7A U10C U11A C13A	1.15
U7C G9A U10C U11A C13U	1.33
U7C G9A U10C U11A C13A	1.18
U7C G9A U10C U11A C13G	1.12
U7A U11C C12G C13A	1.3

Variant	aptazyme ON/OFF ratio
U7A U11C C12G C13G	1.16
U7A U11C C12G C13U	1.23
U7A U10G U11G C12A C13U	1.22
U7A U10G U11G C12A C13G	1.16
U7A U10G U11G C12A C13A	1.19
U7A U10G C12A C13U	1.2
U7A U10G C12A C13G	1.09
U7A U10G C12A C13A	1.16
U7A U10C U11C C12U C13G	1.08
U7A U10C U11C C12U C13A	1.03
U7A U10C U11C C12U C13U	1.07
U7A U10C U11G C12G C13G	1.31
U7A U10C U11G C12G C13U	1.18
U7A U10C U11G C12G C13A	1.24
U7C G9A U10C U11A C12G C13G	1.39
U7C G9A U10C U11A C12G C13U	1.18
U7C G9A U10C U11A C12G C13A	1.11
U7C G9A U10C U11G C13G	1.22
U7C G9A U10C U11G C13U	1.45
U7C G9A U10C U11G C13A	1.19
U7C C12G C13A	1.18
U7C C12G C13U	1.43
U7C C12G C13G	1.17
U7C G9A U10G U11A C12A C13A	1.17

Variant	aptazyme ON/OFF ratio
U7C G9A U10G U11A C12A C13G	1.09
U7C G9A U10G U11A C12A C13U	1.16
U7A U10C U11C C12A C13U	1.1
U7A U10C U11C C12A C13A	1.06
U7A U10C U11C C12A C13G	1.16
U7A U10G U11A C12G C13G	1.17
U7A U10G U11A C12G C13A	1.08
U7A U10G U11A C12G C13U	1.28
U7A U10G U11A C12A	1.36
U7A U10G U11A C12G	1.24
U7A U10G U11A C12U	1.13
U7C G9A U10A U11A C12G C13A	1.17
U7C G9A U10A U11A C12G C13G	1.22
U7C G9A U10A U11A C12G C13U	1.19
U7C G9A C12G	1.14
U7C G9A C12U	1.16
U7C G9A C12A	1.33
U7C G9A U10A C12U C13U	1.25
U7C G9A U10A C12U C13A	1.16
U7C G9A U10A C12U C13G	1.2
U7A U10C U11C C13G	1.07
U7A U10C U11C C13U	1.03
U7A U10C U11C C13A	1.03
